4 molecules from patent US20110300138A1 (published 2011) can be followed below.

The target of assay [1] is thyroid stimulating hormone receptor (TSHR), full length human TSHR (human) (UniProt P16473). The experiment in a line: TSH-biotin competition ELISA, TSHR coated wells; negative control, 1 µg/mL in assay buffer.
Assay [2] addresses TSH receptor (full length human TSHR) (human) (UniProt P16473). Description: competition ELISA: inhibition of M22 Fab-peroxidase (competitor) binding to TSHR coated wells; negative control at 1 µg/mL diluted in HBD serum pool. (In general: An ELISA detects its analyte on a solid surface through an enzyme-linked reagent.)
Assay [3] concerns the target TSH receptor (TSHR) coated on tubes (human) (UniProt P16473). Description: inhibition of 125I-K1-70 IgG binding to TSHR coated tubes; negative control 10 µg/mL in HBD serum pool.
Assay [4] deals with thyroid stimulating hormone receptor (TSHR), full length human TSHR (human) (UniProt P16473). Description: TSH-biotin competition ELISA, TSHR coated wells; negative control, 10 µg/mL in assay buffer.
Assay [5] deals with human thyroid stimulating hormone receptor (TSHR), full length (human) (UniProt P16473). The experiment in a line: 125I-K1-70 Fab (competitor) binding to TSHR coated tubes; negative control MAb 10 µg/mL in assay buffer.
Assay [6] addresses TSH receptor (TSHR), full length human, coated on tubes (human) (UniProt P16473). The experiment in a line: inhibition of 125I-K1-18 IgG binding to TSHR coated tubes; competitor 125I-K1-18 IgG; negative control sample at 0.1 µg/mL in assay buffer.
The target is the same in assay [7]. The experiment in a line: inhibition of 125I-K1-18 IgG binding to TSHR coated tubes; competitor 125I-K1-18 IgG; negative control sample at 0.01 µg/mL in HBD serum.
Assay [8] concerns the target human thyroid stimulating hormone receptor (TSHR), full length (human) (UniProt P16473). Description: 125I-K1-70 Fab (competitor) binding to TSHR coated tubes; negative control MAb 0.001 µg/mL in assay buffer.
The target is the same in assay [9]. The experiment in a line: 125I-K1-70 Fab (competitor) binding to TSHR coated tubes; negative control MAb 100 µg/mL in HBD serum.
For assay [10], the target named is TSH receptor (TSHR), full length human, coated on tubes (human) (UniProt P16473). The experiment in a line: inhibition of 125I-TSH binding to TSHR coated tubes; 0.003 µg/mL, diluted in assay buffer.
Assay [11] has as its target human TSH receptor (full length) coated on ELISA plate wells (human) (UniProt P16473). Description: TSH-biotin binding inhibition ELISA, TSHR coated wells; 0.03 µg/mL in assay buffer + 100 µg/mL 5B3 IgG.
The target in assay [12] is TSH receptor (full length human TSHR) coated on tubes (human) (UniProt P16473). The experiment in a line: 125I-TSH binding inhibition read against NIBSC 90/672; 30 ng/mL, in serum.
Assay [13] has as its target TSH receptor (full length human TSHR) (human) (UniProt P16473). The experiment in a line: competition ELISA: inhibition of M22 Fab-peroxidase (competitor) binding to TSHR coated wells; test sample at 100 µg/mL diluted in assay buffer.
Assay [14] has as its target TSHR (full length) coated on tubes (human) (UniProt P16473). Description: inhibition of 125I-K1-18 Fab (competitor) binding to TSHR coated tubes; test sample 10 µg/mL in assay buffer.
For assay [15], the target named is TSH receptor (TSHR), full length human, coated on tubes (human) (UniProt P16473). The experiment in a line: inhibition of 125I-K1-18 IgG binding to TSHR coated tubes; competitor 125I-K1-18 IgG; sample at 100 µg/mL in HBD serum.
The target of assay [16] is thyroid stimulating hormone receptor (TSHR), full length human TSHR (human) (UniProt P16473). The experiment in a line: TSH-biotin competition ELISA, TSHR coated wells; 10 µg/mL in assay buffer.
Assay [17] addresses TSH receptor (full length human TSHR) (human) (UniProt P16473). The experiment in a line: competition ELISA: inhibition of M22 Fab-peroxidase (competitor) binding to TSHR coated wells; test sample at 0.01 µg/mL diluted in HBD serum pool.
Assay [18] has as its target thyroid stimulating hormone receptor (TSHR), full length, coated on tubes (human) (UniProt P16473). The experiment in a line: inhibition of 125I-TSH binding, TSHR coated tubes; antibody 1 µg/mL in assay buffer.
In assay [19] the target is human TSH receptor (full length) coated on ELISA plate wells (human) (UniProt P16473). Description: TSH-biotin binding inhibition ELISA, TSHR coated wells; 0.01 µg/mL in HBD serum pool.
Assay [20] has the same target. Description: TSH-biotin binding inhibition ELISA, TSHR coated wells; 100 µg/mL in HBD serum pool.
The target of assay [21] is thyroid stimulating hormone receptor (full length human TSHR) (human) (UniProt P16473). Description: ELISA, inhibition of TSH-biotin binding to TSHR coated wells; 0.1 µg/mL, diluted in HBD serum pool.
Assay [22] concerns the target TSH receptor (TSHR) coated on tubes (human) (UniProt P16473). Description: inhibition of 125I-K1-70 IgG binding to TSHR coated tubes; sample 0.01 µg/mL in HBD serum pool.
Assay [23] has as its target TSH receptor (TSHR), full length human, coated on tubes (human) (UniProt P16473). Description: inhibition of 125I-K1-18 IgG (competitor) binding to TSHR coated tubes; test sample at 100 µg/mL in HBD serum pool.
Assay [24] addresses human thyroid stimulating hormone receptor (TSHR), full length (human) (UniProt P16473). Description: 125I-K1-18 Fab competition, TSHR coated tubes; 1 µg/mL in HBD.
Assay [25] has as its target human TSH receptor (full length) coated on ELISA plate wells (human) (UniProt P16473). The experiment in a line: TSH-biotin binding inhibition ELISA, TSHR coated wells; 1 µg/mL in HBD serum pool.
For assay [26] the target is unchanged. Description: TSH-biotin binding inhibition ELISA, TSHR coated wells; 0.1 µg/mL in assay buffer.
Assay [27] addresses thyroid stimulating hormone receptor (full length human TSHR) (human) (UniProt P16473). Description: ELISA: inhibition of M22 Fab-peroxidase (competitor) binding to TSHR coated wells; 1 µg/mL, diluted in assay buffer.

For the molecule 5B3 IgG (antibody), the Inhibition of binding (%) in assay [1] was -8.3%; in [2] it was 9.7%; in [3] it was -0.7%; in assay [4], -8.4%; in assay [5] it was -2.1%; in [6], -4.8%. Further, the Inhibition of binding (%) is -8.1% in assay [7], -1.8% in assay [8] and -8.6% in assay [9].

As for M22 IgG (antibody), the Inhibition of binding (%) in assay [10] is -1.5%. Moreover, in assay [11], the % inhibition of TSH-biotin binding was 43.6%. This molecule returned a units/L in assay [12] of 4.3 units/L.

Take 9D33 IgG (antibody): the Inhibition of binding (%) is 64.1% in assay [13]; 69.5% in [14]; 68.7% in [15]; 84.8% in [16]; 6.2% in assay [17].

B1: 5C9 IgG (antibody, from another filing, V domains shown)
VH: EVQLVESGGGLIQPGGSLRLSCAASGFTVSSNYMSWVRQAPGKGLEWVSVTYSGGSTSYADSVKGRFTISRDNSKNTLYLQMNSLRAEDTAVYYCARGGRYCSSISCYARSGCDYWGQGTLVTVSS
VL: AIQMTQSPSSLSASVGDRVTITCRASQSISNYLNWYQQKPGKAPKLLIYAASSLQSGVPSRFSGSGSGTDFTLTISSLQPEDFATYYCQQSYSSPSTTFGQGTKLEIK
B1: the Inhibition of binding (%) in [18] was 23.5%; in assay [21] it was 10.4%; in assay [22], 2.8%; in assay [23], 57.7%; in assay [24], 23.2%; in assay [27], 12.1%. For the same molecule, the % inhibition of TSH-biotin binding in assay [19] is 7.5%; in assay [20], 48.6%; in [25] it was 35.7%; in assay [26] it was 34.9%.
